Reference: PMC7752791, “Dehydroquinate dehydratase/shikimate dehydrogenases involved in gallate biosynthesis of the aluminum-tolerant tree species Eucalyptus camaldulensis” (Planta, 2020)

B1: EcDQD/SDH2 (Eucalyptus camaldulensis) (protein)
chain: TLSSIPLTAADLQIPAGGRRNSTLLCAPVMGESVDQMLGQIRAAKEQGADLVEVRLDFLKSFSPKQDLEILLKQSALPTLVTYRPKWEGGQYEGDDSQRLDALRLALELGADYVDVELQVAQEFFSSIQGKKPEKAKIIVSSHNYQNTPSSEELGNLVAKIQATGADIVKIATTALDISDCPRIFEVLAHSQVPTIAIAMGERGLISRILAAKFGGYLTFGAIEAGVVSAPGQPSIKDLLDLYNLRQLGPDTKVHGVIGKPIGHSKSPHLYNAAFKSVNFNGIYLPLLVDNVANFINAYSSPDFVGYSYTIPHKEDGLRCCDEVDPIAKAIGAISQMIRRPTDGKMIGYNVDYLGAIAAIEEALRASNGASPTTTSPLAGKLFVVIGAGGAGKALAYGAMEKGARVVVANRTYEKAKELASKVGGQAITLAELENFHPEDGMVLANTTSVGMKPNVDLTPLPKNALSRYCLVFDAIYTPKLTRLLREAQEVGAIPVYGTEMFINQAFVQFERFTGYPAPKQLIRDTLVKNS
notes: genome locus by order of listing EcC035206.10
B2: EcDQD/SDH1 (Eucalyptus camaldulensis) (protein)
chain: ASTGNVLLATSSAPHEMESGAVRKNSTLICVPVMADSVEEMVIQLDKAKSSGADLVEIRVDSLKNLSPHEDLKTLIKASALPTLFTYRPKWEGGQYDGDDKPRLETLRLAMELGADYIDVELKVASEFNASIQGRKPEKCKVIVSSHNYENTPSAEDLSNLVARIQAAGADIVKIATTALDITDVERMFHITVHSQVSSVPVIGMVMGERGLISRVLCAKFGGFLTFGTLESGVVSAPGQPTIKDLLDLYNFRSIGPDTKVFGIIGKPVGHSKSPLLYNQAFKSAGFDGVFLHLLVDDVASFLQTYSSTDFAGFSCTIPHKEAAVKCCDEVDPVAKSIGAVNCIIRRQSDAKLFGYNTDYVGAISAIEDGLRGSQNGNSAGASPLNGKLFVVIGAGGAGKALGYGAKEKGARVVIANRTYDRARELAETIGGDALSLADLENFHPEDGMILANTTSIGMQPKVDETPIPKHALKHYSLVFDAVYTPKITRLLKEAEECGATIVSGLEMFIGQAYGQYERYTGLPAPKELFRKIMSKY
notes: genome locus by order of listing EcC055014.20
B3: EcDQD/SDH4a (EcQDHa) (Eucalyptus camaldulensis) (protein)
chain: GSLSLSSVGLTMVCAPVMGESVDQVVEEMHKAKAQGADVVEVRLDCIKQFQAHQDLEIILKSKPLPVIIVYRPKCEGGLYEGDETARLEALRSALKLGADYVDFELKVAAELMSKQNKLHCGGTKVIVSCFLDGVTPSKEELSNLATHMKATGADIIKIVTSASNITELAGLFHLLSYSQMPVVAYAVGERGLISQLLSPKFGSTLVYGSIEGMAVPGLPTLESLRKTYKVEHINSDTTVFGLISKPVGHSKGPILHNPTLRHMNFNGLYVPMFVDNLKEFFEVYSTPDFAGFSVGFPYKEAVIQFCDEVHPLAQTIGAVNTIVRRPSDGKLIGYNTDCEASVTAMEDALQECRCINGEKSLVSPLAGKEFVLVGAGGAGRALAFGAKTRGARIIIFDIDFERAKMLAHAVSGEARPFGDLPYFQPEKGSILANATPIGMHPNKDRIPVSEASLGVFQLVFDAVYTPRKTTLLKEAEAAGAITVSGVEMFLRQAIGQFNLFTGGEAPKEFMREIVLAKF
B4: EcDQD/SDH3 (Eucalyptus camaldulensis) (protein)
chain: GSVPFTTSDLQTSTSGFRSSPTLLCTPLMGTTVDQMLIEMRKAKEIGADLVEIRLDCLRNFNPHQDLQILIKQSPLPTLVTYRPVWEGGQYEGDESKRQDALRLAMQLGAHYIDVELEVAHDFNSSILGKKPDNFKIIVSSHNFHNTPSAEAIGNLVARIQATGADIAKIATTALDITDCARIFQITVHSQIPIIGIVMGERGLISRILSPKFGGYLTYGALEAGAISAPGQPTAKDLLDLYNFRLIRPDTKVYGIIGKPVGHSKSPLLFNASYKSVGLNAVYLHFLVDDVEKFFNTYSAVDFASGCSCTIPHKEAALKCMDEIDPIAKKIGAINNIVRRPDGTLTAFNTDYIGAISAIEDGLRGLNGVSSGASPLAGKLFVVLGAGGAGKSLAYGAAQKGARVVVANRTFERAKELADKVGGQAMTLAEVENFHPEEGMVLANTTSVGMKPKIDETPLAKHALKHYCLVFDAIYTPKDTRLLREARETGAVIVYGTEMLIRQGFEQYKNFTGLPAPEELFRTLMEKHA
notes: genome locus by order of listing EcC054875.120

Columns and labels:
Type in all cases: biochemical, Eucalyptus camaldulensis
purified protein [1] = substrate: NC(=O)C1=CN([C@@H]2O[C@H](COP(=O)(O)OP(=O)(O)OC[C@H]3O[C@@H](n4cnc5c(N)ncnc54)[C@H](OP(=O)(O)O)[C@@H]3O)[C@@H](O)[C@H]2O)C=CC1; assay: purified protein; conditions: shikimate formation from 3-DHS, varied: cofactor
purified protein [2] = substrate: NC(=O)c1ccc[n+]([C@@H]2O[C@H](COP(=O)(O)OP(=O)(O)OC[C@H]3O[C@@H](n4cnc5c(N)ncnc54)[C@H](OP(=O)(O)O)[C@@H]3O)[C@@H](O)[C@H]2O)c1; assay: purified protein; conditions: shikimate oxidation, pH 9, 30 °C, varied: cofactor
purified protein [3] = substrate: O=C(O)C1=CC(=O)[C@@H](O)[C@H](O)C1; assay: purified protein; conditions: shikimate formation with NADPH
purified protein [4] = substrate: O=C(O)C1=C[C@@H](O)[C@@H](O)[C@H](O)C1; assay: purified protein; conditions: shikimate oxidation with NADP+, pH 9, 30 °C
[5] = substrate: O=C1C[C@@](O)(C(=O)O)C[C@@H](O)[C@@H]1O; assay: HPLC of 3-DHS formed, Michaelis-Menten fit; conditions: DQD activity, no cofactor, pH 7, 30 °C
Text: HPLC of 3-DHS formed, Michaelis-Menten fit on EcDQD/SDH2

[6] = substrate: O=C1C[C@@](O)(C(=O)O)C[C@@H](O)[C@@H]1O; assay: HPLC of 3-DHS formed, Michaelis-Menten fit; conditions: DQD activity, no cofactor, pH 7, 30 °C; remark: listed apart in the source
Text: HPLC of 3-DHS formed, Michaelis-Menten fit on EcDQD/SDH1

purified protein [7] = substrate: NC(=O)C1=CN([C@@H]2O[C@H](COP(=O)(O)OP(=O)(O)OC[C@H]3O[C@@H](n4cnc5c(N)ncnc54)[C@H](O)[C@@H]3O)[C@@H](O)[C@H]2O)C=CC1; assay: purified protein; conditions: quinate formation from 3-DHQ, pH 7.5, 30 °C, varied: cofactor
purified protein [8] = substrate: NC(=O)c1ccc[n+]([C@@H]2O[C@H](COP(=O)(O)OP(=O)(O)OC[C@H]3O[C@@H](n4cnc5c(N)ncnc54)[C@H](O)[C@@H]3O)[C@@H](O)[C@H]2O)c1; assay: purified protein; conditions: quinate oxidation, pH 9, 30 °C, varied: cofactor
purified protein [9] = substrate: O=C(O)[C@]1(O)C[C@@H](O)[C@@H](O)[C@H](O)C1; assay: purified protein; conditions: quinate oxidation with NAD+, pH 9, 30 °C
purified protein [10] = substrate: O=C1C[C@@](O)(C(=O)O)C[C@@H](O)[C@@H]1O; assay: purified protein; conditions: quinate formation with NADH, pH 7.5, 30 °C
[11] = substrate: O=C1C[C@@](O)(C(=O)O)C[C@@H](O)[C@@H]1O; assay: HPLC of 3-DHS formed, Michaelis-Menten fit; conditions: DQD activity, no cofactor, pH 7, 30 °C; remark: listed apart in the source
Text: HPLC of 3-DHS formed, Michaelis-Menten fit on EcDQD/SDH3

Protein	Km (purified protein [2]) [µM]	Vmax (purified protein [2]) [µmol/min/mg]	kcat (purified protein [2]) [s⁻¹]	kcat/Km (purified protein [2]) [M⁻¹ s⁻¹]	Km (purified protein [4]) [µM]	Vmax (purified protein [4]) [µmol/min/mg]	kcat (purified protein [4]) [s⁻¹]	kcat/Km (purified protein [4]) [M⁻¹ s⁻¹]	Km (purified protein [1]; pH 6.5, 30 °C) [µM]	Vmax (purified protein [1]; pH 6.5, 30 °C) [µmol/min/mg]	kcat (purified protein [1]; pH 6.5, 30 °C) [s⁻¹]	kcat/Km (purified protein [1]; pH 6.5, 30 °C) [M⁻¹ s⁻¹]	Km (purified protein [3]; pH 6.5, 30 °C) [µM]	Vmax (purified protein [3]; pH 6.5, 30 °C) [µmol/min/mg]	kcat (purified protein [3]; pH 6.5, 30 °C) [s⁻¹]	kcat/Km (purified protein [3]; pH 6.5, 30 °C) [M⁻¹ s⁻¹]	also measured
B1	65.2 ± 2.7	141	135 ± 1	2.07e+06	2050 ± 200	153	146 ± 4	71300									Km (purified protein [1]; pH 8.5, 30 °C): 4.38 ± 0.43 µM; Vmax (purified protein [1]; pH 8.5, 30 °C): 28.9 µmol/min/mg; kcat (purified protein [1]; pH 8.5, 30 °C): 27.6 ± 0.5 s⁻¹; kcat/Km (purified protein [1]; pH 8.5, 30 °C): 6.3e+06 M⁻¹ s⁻¹; Km (purified protein [3]; pH 8.5, 30 °C): 8830 ± 1210 µM; Vmax (purified protein [3]; pH 8.5, 30 °C): 49.3 µmol/min/mg; kcat (purified protein [3]; pH 8.5, 30 °C): 47 ± 3.3 s⁻¹; kcat/Km (purified protein [3]; pH 8.5, 30 °C): 5320 M⁻¹ s⁻¹; Km [5]: 322 ± 13 µM; Vmax [5]: 32.4 µmol/min/mg; kcat [5]: 30.9 ± 0.3 s⁻¹; kcat/Km [5]: 96200 M⁻¹ s⁻¹
B2	56.5 ± 2.3	822 ± 6	792 ± 6	1.4e+07	32.6 ± 1.9	780 ± 6	755 ± 6	2.32e+07	49.5 ± 3.6	404	389 ± 9	7.86e+06	381 ± 34	318	307 ± 5	805000	Km [6]: 449 ± 22 µM; Vmax [6]: 63 µmol/min/mg; kcat [6]: 60.4 ± 0.7 s⁻¹; kcat/Km [6]: 135000 M⁻¹ s⁻¹
B3																	Km (purified protein [7]): 102 ± 9 µM; Vmax (purified protein [7]): 318 µmol/min/mg; kcat (purified protein [7]): 298 ± 8 s⁻¹; kcat/Km (purified protein [7]): 2.92e+06 M⁻¹ s⁻¹; Km (purified protein [8]): 53.7 ± 1.7 µM; Vmax (purified protein [8]): 148 µmol/min/mg; kcat (purified protein [8]): 139 ± 1 s⁻¹; kcat/Km (purified protein [8]): 2.59e+06 M⁻¹ s⁻¹; Km (purified protein [9]): 164 ± 10 µM; Vmax (purified protein [9]): 135 µmol/min/mg; kcat (purified protein [9]): 127 ± 2 s⁻¹; kcat/Km (purified protein [9]): 771000 M⁻¹ s⁻¹; Km (purified protein [10]): 1400 ± 120 µM; Vmax (purified protein [10]): 300 µmol/min/mg; kcat (purified protein [10]): 281 ± 7 s⁻¹; kcat/Km (purified protein [10]): 201000 M⁻¹ s⁻¹
B4	41.5 ± 2.1	73.2	70.2 ± 0.6	1.69e+06	3640 ± 360	84	80.7 ± 2.9	22200	23.1 ± 1.4	77.4	74.1 ± 1.2	3.21e+06	878 ± 106	60	57.6 ± 1.7	65600	Km [11]: 882 ± 42 µM; Vmax [11]: 3.83 µmol/min/mg; kcat [11]: 3.67 ± 0.05 s⁻¹; kcat/Km [11]: 4160 M⁻¹ s⁻¹
